# Laboratory results from the nanobody polyreactivity screen of Harvey et al. (2022).
# Assay: yeast display, Sf9 membrane polyspecificity reagent, FACS + sequencing; frameworks hold sequencing errors
# Method in brief: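 Galactose induction of a Saccharomyces cerevisiae BJ5465 synthetic nanobody display library ran 36–48 hours. The cells were then stained for 1 hour at 4 °C with 10% biotinylated, detergent-solubilized Sf9 membrane reagent, pulled down on streptavidin microbeads and FACS-sorted into low and high (top ~1%) gates on expression and reagent-binding fluorescence. Labels for polyreactivity follow the gate of origin.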
row,Sequence,polyreactivity (PSR sort gate)
1,QVQLVESGGGLVQAGGSLRLSCAASGRIFILYAMGWYRQAPAKERALVAAISSGGGRTYYADSVKGRFTISRDNAKNTVYLQMNSLKPEDTAVYYCATRRRRTSQRQGYDYWGQGTQVTVSS,high polyreactivity
2,QVQLVESGGGLVQAGGSLRLSCAASGRIFISNAMGWYRQAPGKERELVAAISWRGTRTYYADSVKGRFTISRENAKNTVYLEMNSLKPEVTAVYYCNADRHRSRGMDYWGQGTQVTVSS,high polyreactivity
3,QVQLVESGGGLVQAGGSLRLSCAASGRIFITNAMGWYRQAPGKERELVAVISYIGGRTYYADSVKGRFTISRDNAKNTVYLQMNSLKPEATAVYYCAARRSRPTYYSTGVNYWGQGTQVTVSS,high polyreactivity
4,QVQLVESGGGLVQAGGSLRLSCAASGRIFIVNTMGWYRQAPGKERELVATIDSDGDTNYADSVKGRFTISRDNAKNTVYLQMNSLKPEDTAVYYCAASYTHTLAALKGGRMDYWGQGTQVTVSS,low polyreactivity
5,QVQLVESGGGLVQAGGSLRLSCAASGRIFIVYPMGWYRQAPGKERELVATITRGGSTNYADSVKGRFTISRDNAKNTVYLQMNSLKPEDTAVYYCAKGWTNRYPWPGRFRTLYDYWGQGTQVTVSS,low polyreactivity
6,QVQLVESGGGLVQAGGSLRLSCAASGRIFIVYVMGWYRQAPGKERELVAGITLSGGNTYYADSVKGRFTISRDNAKNTVYLQMNSLKPEDTAVYYCAAGWYGIEMDYWGQGTQVTVSS,high polyreactivity
7,QVQLVESGGGLVQAGGSLRLSCAASGRIFIYNAMGWYRQAPGKEREFVAAISSSGGSTYYADSVKGRFTISRDNAKNTVYLQMNSLKPEDTAVYYCAAGGWPYSGGWFFQPNYDYWGQGTQVTVSS,low polyreactivity
8,QVQLVESGGGLVQAGGSLRLSCAASGRIFIYNAMGWYRQAPGKERELVAAISSGGSTYYADSVKGRFTISRDNANNTVYLQMNSLKAEDTAVYYCAAPRGHGKYYSWGQGTQVTVSS,high polyreactivity
9,QVQLVESGGGLVQAGGSLRLSCAASGRIFIYYAMGWYRQAPGKERELVAAISWSGGRTYYADSVKGRFTISRDNAKNTVYLQMNSLKPEDTAVDYCAGYSFANHGFDYWGQGTQVIVSS,high polyreactivity
10,QVQLVESGGGLVQAGGSLRLSCAASGRIFIYYTMGWYRQAPGKERELVASITWSGGRTYYADSVKGRFTISRDNAKNTVYLQMNSLKPEDTAVYYCNAGYSIGLVAYGYWGQGTQVTLSS,low polyreactivity
11,QVQLVESGGGLVQAGGSLRLSCAASGRIFKENAMGWYRQAPGKERELVAAISSGASTSYADSVKGRFTISRDNAKNTVYLQMNSLKPEDTAVYYCNRGGDLYYPGWLFDYWGQGSQVTVSS,low polyreactivity
12,QVQLVESGGGLVQAGGSLRLSCAASGRIFKFNAMGWYRQAPGKERELVAATWSGGRTSYADSVKGRFTISRDNAKNTVYLQMNSLKPEDTAVYYCNAADWIDVQYDYWGQGNQVTVSS,low polyreactivity
13,QVQLVESGGGLVQAGGSLRLSCAASGRIFKGNAMGWYRQAPGKEREFVAAISQRGGSTYYADSVKGRFTISRDNAKNTVYLQMNSLKPEDTAVYFCAAAAQRPEGYYWGQGTQVTVSS,high polyreactivity
14,QVQLVESGGGLVQAGGSLRLSCAASGRIFKGNAMGWYRQAPGKEREFVADISQRGGSTYYADSVKGRFTISRDNAKNTVYLQMNSLKPEDTAVYYCAAVRKSVGVKYDYWGQGTQVTVSS,high polyreactivity
15,QVQLVESGGGLVQAGGSLRLSCAASGRIFKGYAMGWYRLAPGKERELVAAITSGGNTNYADSVKGRFTISRDNAKNTVYLQMNSLKPEDTAVYYCAARPRFVYSYPYYYWGQGTQVTVSS,high polyreactivity
16,QVQLVESGGGLVQAGGSLRLSCAASGRIFKHYAMGWYRQAPGKERELVAAITNGGRTNYADSVKGRFTISRDNAKNTVYLQMNSLKPEDTAVYYCARDRKIAYLSEGFDYWGQGTQVTVSS,low polyreactivity
17,QVQLVESGGGLVQAGGSLRLSCAASGRIFKNYAMGWYRQAPGKERELVAAISRSGGRTYYADSVKGRFTISRDNAKNTVYLQMNSLKPEDTAVYYCAADVDYRYSKIYKWTYDYWGQGTQVTVSS,high polyreactivity
18,QVQLVESGGGLVQAGGSLRLSCAASGRIFKNYAMGWYRQAPGKERELVAAITWSGGRTYYADSVKGRFTISRDNAKNTVYLQMNSLKPEDTAVYYCATAARRGPNSIEPFGYGSWGQGTQVTVSS,high polyreactivity
19,QVQLVESGGGLVQAGGSLRLSCAASGRIFKRNAMGGYRQAPGKDREVVADMSYGHSTYADSVKGRFTISRDNAKKTVYLQMNSLKPEDTAFYYCAKLYWIRTYDYWGQGTQVSVSS,low polyreactivity
20,QVQLVESGGGLVQAGGSLRLSCAASGRIFKRNAMGWYRQAPGKERELVAAISYSGGSTYYADSVKGRFTISRDNAKNTVYLQMNSLKPEDTAVYYCAVDRYPTGITKYDYWGQGTQVTVSS,high polyreactivity
21,QVQLVESGGGLVQAGGSLRLSCAASGRIFKRNTMGWYRQAPGKEWELVAAITRSGGSTHYADSVKGRFTFSRDNAKNTVYLHMNSLKPEDTAVYYCAVRAAAIDRLAQFDYWGQGSQVTVSS,low polyreactivity
22,QVQLVESGGGLVQAGGSLRLSCAASGRIFKRYAMGWYRQAPGKERELVAAISRGGSTNYADSVKGRFTISRDNAKNTVYLQMNSLKPEDTAVYYCAVQSGYSGSSQPVRYDYWGQGTQVTVSS,high polyreactivity

row,Sequence,polyreactivity (PSR sort gate)
1,QVQLVESGGGLVQAGGSLRLSCAASGRIFKRYAMGWYRQAPGKERELVAAITSSGGRTYYADSVKGRFTISRDNAKNTVYLQMNSLKPEDTAVYYCNVDSANRDGYWGQGTQVTVSS,high polyreactivity
2,QVQLVESGGGLVQAGGSLRLSCAASGRIFKRYAMGWYRQAPGKERELVASITWSGGSTYYADSVKGRFTISRDNAKNTVYLQMNSLKPEDTAVYYCAARRTATTSRAYYYWGQGTQVTVSS,high polyreactivity
3,QVQLVESGGGLVQAGGSLRLSCAASGRIFKRYAMGWYRQAPGKERELVATITNGGRTSYADSVKGRFTISRDNAKNTVYLQMNSLKPEDTAVYYCNAYGQTSRPLVYGWRYDYWGQGTQVTVSS,high polyreactivity
4,QVQLVESGGGLVQAGGSLRLSCAASGRIFKSYAMGWYRQAPGKEMELVAAINWSGGSTYYADSVKGRFTISRDNAKNTVYLQMNSLKPEDTAVYYCNALYAVRSYDSWGQGTQVTVSS,high polyreactivity
5,QVQLVESGGGLVQAGGSLRLSCAASGRIFKSYAMGWYRQAPGKERELVASIRTGGTTNYADSVNGRFTISRDNAKNTVYLQMNSLKPEDTAVYDCNRGYYSYYGRYYYWGQGTQVTVSS,high polyreactivity
6,QVQLVESGGGLVQAGGSLRLSCAASGRIFKSYVMGWYRQAPGKERELVAAISKRGGRTYYADSVKGRFTISRDNAKNTVYLQMNSLKPEDTAVYYCNATYPVGDFDYWGQGTQVTVSS,high polyreactivity
7,QVQLVESGGGLVQAGGSLRLSCAASGRIFKTYTMGWYRQAPGKERELVAVSTSVGSTYYADSVKGRFTISRDNAKNTVYLQMNSLKPEDTAVYYCAAETWVPQGYDYWGQGTQVTVSS,high polyreactivity
8,QVQLVESGGGLVQAGGSLRLSCAASGRIFKVNTMGWYRQAPGKERELVASIRGGGSTNYADSVKGRFTISRDNAKNTVNLQMHSPKPEDTAVYYCAAGTSKPTPIYGYWGQGTQVTVSS,low polyreactivity
9,QVQLVESGGGLVQAGGSLRLSCAASGRIFKVYAMGWYRQAPGKERELVAAISSRGGSTYYADSVKGRFTISRDNAKNTVYLQMNSLKPEDTAVYYCAALVTWLHPKGDYWGQGTQVTVSS,high polyreactivity
10,QVQLVESGGGLVQAGGSLRLSCAASGRIFKWYAMGWYRQAPGKERELVAAITSGGGSTYYADSVKGRFTISRDNAKNTVYLQMNSLKPEDTAVYYCNSWSSYGYDYWGQGTQVTVSS,high polyreactivity
11,QVQLVESGGGLVQAGGSLRLSCAASGRIFKYNAMGWYRQAPGKERELVAVISFSGGSTYYADSVKGRFTISRDNAKNTVYLQMNSLKPEDTAVYYCNVRQHYSRRLKKWQMDCWGQGTQVTVSS,high polyreactivity
12,QVQLVESGGGLVQAGGSLRLSCAASGRIFKYYAMGWYRPAPGNETELVAAIRWSDSTYYADSVKGRFTSSRDNAKNTVYLQMNSLQPEDTAVYYCAALYRHPQEYRVGDYDYWGQGTQVTVSS,low polyreactivity
13,QVQLVESGGGLVQAGGSLRLSCAASGRIFKYYAMGWYRQAPGKERELFAAISRGGSTYYADSVKGRFTISRDNAKNTVYLQMNSLKPEDTAVYYCNAYRHGYVAYRRYDYWGQGTQVTVSS,high polyreactivity
14,QVQLVESGGGLVQAGGSLRLSCAASGRIFKYYAMGWYRQAPGKERELVAAISRSGGSTYYADSVKGRFTISRDNAKKTVYLQMNSLKPEDTAVYYCAAGYKQATYDRIRTAYGYWGQGTQVTVSS,high polyreactivity
15,QVQLVESGGGLVQAGGSLRLSCAASGRIFKYYSMGWYRQAPGKERELVAAITRGGSTNYADSVKGRFTISRDNAKNTFYLQMKSLKTEDTEVYYCAVDTVRNHLMDYWGQGNQVTVSS,low polyreactivity
16,QVQLVESGGGLVQAGGSLRLSCAASGRIFKYYTMVWYRQAPGKERELVAAINSRGGTTYYADSVKGRFTISRDNAKNTVYLQMNSLKPVDTAVYYCAIDRIRDAGYRGLHRFDYWGQGTQVTLSS,low polyreactivity
17,QVQLVESGGGLVQAGGSLRLSCAASGRIFKYYVMGWYRQAPGKERELVAGISSSGGSTYYADSVKGRFTISRDNAKNTVYLQMNSLKPEDTAVYYCAADYTFAYYNVKMDYWGQGTQVTVSS,low polyreactivity
18,QVQLVESGGGLVQAGGSLRLSCAASGRIFLFNAMGWYRQAPGKEREFVAAISASGGSTYYADSVKGRFTISRDNAKNTVYLQMNSLKPEDTAVYYCAADYLYTRDVDYDYWGQGTQVTVSS,low polyreactivity
19,QVQLVESGGGLVQAGGSLRLSCAASGRIFLFYAMGWYRPAPGKERELVAAISVRGGSTYYADSVKGRFTISRDNAKNTVYLQMNSLKPEDTAVYYCAAKQKHTQQYGYWGQGTQVTVSS,high polyreactivity
20,QVQLVESGGGLVQAGGSLRLSCAASGRIFLGNAMGWYRQAPGKESELVAAITYSGRSTYYADSVKGRFTISRDNAKNTVYLQMNSLKPEDTAVYYSAARQYWTTDLPFQRYYYWGQGTQVTVSS,low polyreactivity
21,QVQLVESGGGLVQAGGSLRLSCAASGRIFLGNVMGWYRQAPGKERELVAAISSGGSTNYADSVKGRFTISRDNAKNTVYLQMNSLKPEDTAVYYCAAYFVRDWKLYYYWGQGTQVTVSS,low polyreactivity
